Measurements reported in doi:10.1101/2020.06.24.169508.

Biological target: Vibrio campbellii chitoporin VhChiP, wild type (Vibrio campbellii (formerly Vibrio harveyi) BAA-1116)
Assay: SEC

Vibrio campbellii chitoporin VhChiP, wild type (natural protein)
stoichiometry N: 3
